# Laboratory results: US7462701
# T1: Gly-Asp-Asp-Asp-Asp-Lys-β-naphthylamide
# T1 chain: GDDDDK
# Molecular target: T1, Gly-Asp-Asp-Asp-Asp-Lys-β-naphthylamide
protein,measurement,value
CBM-enterokinase produced transiently in lettuce and purified on cellulose (protein) MVATAKYGTPVIDGEIDEIWNTTEEIETKAVAMGSLDKNATAKVRVLWDENYLYVLAIVKDPVLNKDNSNPWEQDSVEIFIDENNHKTGYYEDDDAQFRVNYMNEQTFGTGGSPARFKTAVKLIEGGYIVEAAIKWKTIKPTPNTVIGFNIQVNDANEKGQRVGIISWSDPTNNSWRDPSKFGNLRLIK,Enterokinase activity (rate of β-naphthylamine formation),Enterokinase activity was measured to be 442.7 cps/min/µg compared to blank 0.0001 cps/min/µg
